Measurements as given in patent US20220396632A1 (VERSEAU THERAPEUTICS, published 2022).

Tests used:
[1] = molecular target: T1, Human complement C4 protein (Millipore Sigma, Cat. 204886) (human, UniProt P0C0L4 20-675; P0C0L4 680-1446; P0C0L4 1454-1744, limits assumed, natural sulfotyrosines); assay: ELISA, 50 nM mAb on plate-bound protein
T1 construct: mature
Protocol: Recombinant PSGL-1-hFc1 chimera protein consisting of PSGL-1's extracellular domain (ECD) served as a positive control. […] Primary antibody was added (25 ul per well) in duplicate at 50 nM in assay buffer (blocking buffer containing 0.05% Tween®20) into test and control (just blocked) wells and the plate incubated for 45 min at 37° C.

E58A = molecular target: T2, E58A (C-terminal Lys-biotin); assay: alanine-scan ELISA, streptavidin-immobilized biotin peptide
T2 construct: alanine-scan peptide; also called Biotin PSGL-1(42-62) E58A peptide; 58E
T2 peptide: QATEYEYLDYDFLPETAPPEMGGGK

Q42A = molecular target: T3, Q42A (C-terminal Lys-biotin); assay: as above
T3 construct: alanine-scan peptide; also called Biotin PSGL-1(42-62) Q42A peptide; 42Q
T3 peptide: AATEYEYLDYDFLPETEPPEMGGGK

P59A = molecular target: T4, P59A (C-terminal Lys-biotin); assay: as above
T4 construct: alanine-scan peptide; also called Biotin PSGL-1(42-62) P59A peptide; 59P
T4 peptide: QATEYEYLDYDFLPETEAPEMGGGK

Y48A = molecular target: T5, Y48A (C-terminal Lys-biotin); assay: as above
T5 construct: alanine-scan peptide; also called Biotin PSGL-1(42-62) Y48A peptide; 48Y
T5 peptide: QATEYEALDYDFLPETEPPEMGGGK

P60A = molecular target: T6, P60A (C-terminal Lys-biotin); assay: as above
T6 construct: alanine-scan peptide; also called Biotin PSGL-1(42-62) P60A peptide; 60P
T6 peptide: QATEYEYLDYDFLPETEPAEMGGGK

T57A = molecular target: T7, T57A (C-terminal Lys-biotin); assay: as above
T7 construct: alanine-scan peptide; also called Biotin PSGL-1(42-62) T57A peptide; 57T
T7 peptide: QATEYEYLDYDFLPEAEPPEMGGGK

E47A = molecular target: T8, E47A (C-terminal Lys-biotin); assay: as above
T8 construct: alanine-scan peptide; also called Biotin PSGL-1(42-62) E47A peptide; 47E
T8 peptide: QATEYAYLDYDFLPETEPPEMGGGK

[2] = molecular target: T9, Recombinant human PSGL-1(ECD)-hFc1 (R&D Systems, Cat. 3345-PS) (human, UniProt Q14242 42-305); assay: Octet tandem; competitor 16E17
T9 construct: Bought; Gln42-Val295 counted on AAC50061; also called PSGL-1-Fc; PSGL-1-hFc1 chimera; not shown: human IgG1 Fc, Pro100-Lys330
T9 sequence: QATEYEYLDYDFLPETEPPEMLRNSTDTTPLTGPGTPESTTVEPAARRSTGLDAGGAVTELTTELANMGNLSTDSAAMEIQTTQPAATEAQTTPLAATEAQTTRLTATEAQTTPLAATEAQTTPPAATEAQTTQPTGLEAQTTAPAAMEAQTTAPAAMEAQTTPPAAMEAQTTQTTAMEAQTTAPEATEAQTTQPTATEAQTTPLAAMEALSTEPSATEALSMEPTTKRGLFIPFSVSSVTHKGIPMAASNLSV
Protocol: (§1) Antibody binning was performed by ForteBio Octet® using a tandem assay format, with anti-human IgG biosensor-immobilized PSGL-1(ECD)-hFc1 protein, binding of competitor mAb followed by analyte antibody. As competition controls, the same antibody was competed against itself, and mAb competition was performed bidirectionally.
(§2) Antibody binning by tandem octet was performed by immobilizing 10 ug/mL PSGL-1(ECD)-hFc1 (R&D Systems, Cat. #3345-PS) in PBS, pH 7.4, onto anti-human IgG capture biosensors (ForteBio, Cat. #18-5060), binding of 100 nM competitor antibody for 300 sec., followed by binding of 100 nM of analyte mAb for 300 s in kinetic buffer (0.1% BSA in PBS containing 0.02% tween 20 and 0.05% sodium azide, pH 7.4). Synagis (Johnson et al. (1997) J. Infect. Dis. 176:1215-1224) served as a negative control mAb for competition. An Fc quench step (0.25 mg/mL human IgG Fcl; BioXcell, Cat. #BE0096, in kinetic buffer) was included when human mAbs were tested to prevent high background from the antibodies binding to the anti-human IgG biosensor. Biosensor regeneration buffer consisted of 10 mM glycine, pH 2.0.

[3] = molecular target: PSGL-1(ECD)-hFc1 M119A protein (Sino Biological) (human); assay: ELISA, plate-bound peptide or protein
Protocol: (§3) A typical ELISA experiment involved binding of a single concentration or serially diluted mAb in assay buffer (3% BSA in PBS containing 0.05% Tween®20, pH 7.4) onto BSA blocked high binding microtiter plate half-wells (Corning Cat. #3690), which contained PSGL-1 protein or streptavidin-immobilized biotin peptide. After incubation for 45 min. at 37° C., the plate was washed 3 times with wash buffer (PBS containing 0.05% Tween®20, pH 7.4), and an appropriate HRP-conjugated secondary antibody added (25 ul/well) (HRP goat anti-mouse or anti-human IgG). After 45 min. incubation at 37° C., the plate was washed and antibody bound to plate-immobilized target was determined at A450 nm using HRP substrate (3,3′5,5′-tetramethylbenzidine (TMB)). For each antibody, duplicate values were averaged and assay background subtracted.

[4] = molecular target: PSGL-1(ECD)-hFc1 I121A protein (Sino Biological) (human); assay: ELISA, plate-bound peptide or protein
Protocol: as §3

[5] = molecular target: PSGL-1(ECD)-hFc1 S116A protein (Sino Biological) (human); assay: ELISA, plate-bound peptide or protein
Protocol: as §3

[6] = molecular target: T9, Recombinant human PSGL-1(ECD)-hFc1 (R&D …); assay: Octet tandem; competitor 19L04
Protocol: as §1, §2

[7] = molecular target: T9, Recombinant human PSGL-1(ECD)-hFc1 (R&D …); assay: Octet tandem; competitor 20G13
Protocol: as §1, §2

[8] = molecular target: T9, Recombinant human PSGL-1(ECD)-hFc1 (R&D …); assay: Octet tandem; competitor 18K07
Protocol: as §1, §2

T1 sequence (P0C0L4 20-675 limits assumed, form in doubt, chain 1 of 3): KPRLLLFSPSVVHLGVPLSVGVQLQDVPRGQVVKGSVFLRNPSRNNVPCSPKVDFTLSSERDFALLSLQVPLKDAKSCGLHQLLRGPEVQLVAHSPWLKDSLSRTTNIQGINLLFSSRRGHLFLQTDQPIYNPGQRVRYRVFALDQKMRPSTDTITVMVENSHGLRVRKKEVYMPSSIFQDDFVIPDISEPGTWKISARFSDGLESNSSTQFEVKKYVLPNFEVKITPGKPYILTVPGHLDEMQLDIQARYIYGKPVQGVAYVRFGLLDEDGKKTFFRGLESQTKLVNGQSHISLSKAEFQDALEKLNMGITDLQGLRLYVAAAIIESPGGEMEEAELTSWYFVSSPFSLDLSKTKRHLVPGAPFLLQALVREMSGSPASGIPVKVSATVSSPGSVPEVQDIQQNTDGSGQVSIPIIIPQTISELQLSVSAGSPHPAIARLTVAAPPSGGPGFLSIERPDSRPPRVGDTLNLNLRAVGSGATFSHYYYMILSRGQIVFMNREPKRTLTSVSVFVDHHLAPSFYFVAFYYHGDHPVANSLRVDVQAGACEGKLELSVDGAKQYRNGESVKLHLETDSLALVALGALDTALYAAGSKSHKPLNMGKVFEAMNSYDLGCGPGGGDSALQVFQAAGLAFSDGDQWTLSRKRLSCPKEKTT
T1 sequence (P0C0L4 680-1446 limits assumed, form in doubt, chain 2 of 3): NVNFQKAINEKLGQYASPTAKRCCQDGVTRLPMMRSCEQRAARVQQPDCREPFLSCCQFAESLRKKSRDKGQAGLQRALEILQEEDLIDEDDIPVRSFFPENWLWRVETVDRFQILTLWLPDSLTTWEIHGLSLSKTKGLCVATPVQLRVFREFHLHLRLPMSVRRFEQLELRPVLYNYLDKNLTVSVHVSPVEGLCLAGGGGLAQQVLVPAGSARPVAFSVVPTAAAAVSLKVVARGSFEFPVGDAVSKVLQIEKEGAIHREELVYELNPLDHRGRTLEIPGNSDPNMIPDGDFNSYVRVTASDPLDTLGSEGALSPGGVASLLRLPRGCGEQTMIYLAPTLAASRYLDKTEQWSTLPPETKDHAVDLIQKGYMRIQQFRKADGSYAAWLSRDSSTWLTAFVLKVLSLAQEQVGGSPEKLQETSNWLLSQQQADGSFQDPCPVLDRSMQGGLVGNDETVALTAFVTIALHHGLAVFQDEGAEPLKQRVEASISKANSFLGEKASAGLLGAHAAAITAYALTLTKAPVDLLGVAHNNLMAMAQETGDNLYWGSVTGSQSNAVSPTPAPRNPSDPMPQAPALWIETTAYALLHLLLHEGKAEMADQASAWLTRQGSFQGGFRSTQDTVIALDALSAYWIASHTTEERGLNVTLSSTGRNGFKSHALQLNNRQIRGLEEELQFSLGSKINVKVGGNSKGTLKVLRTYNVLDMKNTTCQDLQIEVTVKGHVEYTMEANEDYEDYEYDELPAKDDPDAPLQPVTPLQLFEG
T1 sequence (P0C0L4 1454-1744 limits assumed, form in doubt, chain 3 of 3): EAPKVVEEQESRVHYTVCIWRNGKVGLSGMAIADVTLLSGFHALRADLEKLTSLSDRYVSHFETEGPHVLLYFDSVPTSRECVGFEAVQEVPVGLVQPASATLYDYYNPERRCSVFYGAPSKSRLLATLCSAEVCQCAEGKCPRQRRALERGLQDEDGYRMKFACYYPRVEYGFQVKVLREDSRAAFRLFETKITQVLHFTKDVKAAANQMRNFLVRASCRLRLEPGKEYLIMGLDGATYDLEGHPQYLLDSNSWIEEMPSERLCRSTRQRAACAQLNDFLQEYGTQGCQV

Row | Binder | % of binding to PSGL-1(ECD)-hFc1 [1] | % binding of analyte mAb [2] | EC50 [3] | EC50 [4] | EC50 [5] | % binding of analyte mAb [6] | % binding of analyte mAb [7] | % binding of analyte mAb [8] | further results
1 | 18F02 (antibody, V domains shown, From mouse immunisation; only variable domains given) VH: QVQLQQPGAELVKPGASVKLSCKASGYTFTSYWMHWVKQRPGQGLEWIGMIHPNSGRTNYNEKFKSKATLTVDKSSSTAYMQLSSLTSEDSAVYYCARSDYWGQGTTLTVSS VL: DIVMTQAAFSNPVTLGTSASISCRSSKSLLHSDGITYLYWFLQRPGQSPQLLIYRMSNLASGVPDRFSGSGSGTDFTLRISRVEAEDVGVYYCAQMLEFPRTFGGGTKLEIK | ≤ 10% |  |  |  |  |  |  |  | binding result (E58A): binds; binding result (Q42A): binds; binding result (P59A): binds; binding result (Y48A): binds; binding result (P60A): binds; binding result (T57A): binds; binding result (E47A): binds
2 | 5E12 (antibody, V domains shown, Mouse hybridoma mAb; only variable domains given) VH: EIQLQQSGAELVRPGASVKLSCTASGFNIKDDYIHWVKQRPEQGLEWIGRIDPANGNTKSAPKFQDKATITADTSSNTAYLHLSSLTSEDTAVYYCSIRFAYWGQGTLVTVSA VL: DVVMTQTPLSLSVSLGDQASISCRSSQSLVYRNGDTYLHWFLQKPGQSPKLLIYKVSNRFSGVPDRFSGSGSGTDFTLKISRVEAEDLGIYFCSQNTHVPYTFGGGTKLEIK | ≤ 10% |  |  |  |  |  |  |  | 
3 | 16L15 (antibody, V domains shown, From mouse immunisation; only variable domains given) VH: DVKLVESGGGLVKLGGSLKLSCAASGFTFSSYYMSWVRQTPEKRLEWVATISNGGGSTYYPDSVKDRFTISRDNAKNTLYLQMSSLNSEDTAVYYCAKPLYYSNPWFAYWGQGTLVTVSA VL: DVLLTQTPLSLPVSLGDQASISCRSSQSIVHSNGNTYLEWYLQKPGQSPKLLIYKVSNRFSGVPDRFSGSGSGTDFTLKISRVEAEDLGVYYCFQGSHVPRTFGGGTKLEIK | ≤ 10% |  |  |  |  |  |  |  | 
4 | 10F01 (antibody, IgG4, V domains shown) VH: EVQLVQSGGGLVQPGGSLRLSCAASGFTFSSYAMSWVRQAPGKGLEWVSALRGGDGGTYHADSVKGRFTISGDSSKNTLYLQMNSLRAEDTAVYYCARRMVGAAYAFDIWGQGTMVTVSS VL: LPVLTQPHSVSESPGKTVTISCTRSSGSIADNFVQWYRQRPGSAPTTVIYEGDQRPSGVPGRFSGSIDSSSNSASLTISGLQTDDEADYYCQSFDSYNRRTHVVFGGGTKLTVL | ≤ 10% |  |  |  |  |  |  |  | 
5 | 16E17 (antibody, V domains shown, From mouse immunisation; only variable domains given) VH: QIQLVQSGPELKKPGETVKISCKASGYAFTTYGMSWVKQAPGKGLKWMGWINTYSGVPKYADDFKGRFAFSLETSASTAYLHINNLKNEDTATYFCGRHYYGSSYFDYWGQGTTLTVSS VL: not shown |  | 16.3% | 0.87 nM | 1.54 nM | 0.8 nM | 0% | 32.4% | 67.4% | 
6 | 19L04 (antibody, IgG4, V domains shown, From mouse immunisation; only variable domains given) VH: QIQLVQSGPELKKPGETVKISCKASGYTFTTYGMSWVKQAPGKGLKWMGWINTYSGVPTYADDFKGRFAFSLETSASTAYLQINNLKIEDTATYFCARHYYGSHYFDYWGQGTTLTVSS VL: DIMMTQSPSSLAMSVGQKVTLRCKSSQSLLNSSNQKNYLAWYQQKPGQSPKLLVYFASTRESGVPVRFIGSGSGTDFTLTISSMQAEDLADYFCQQHYFSPLTFGAGTKLELK |  | 61.9% | 0.86 nM | 0.97 nM | 0.98 nM | 35.9% | 0% | 50.5% | 
7 | 19N05 (antibody, V domains shown, From mouse immunisation; only variable domains given) VH: QIQLVQSGPELKKPGETVKISCKASGYTFTTYGMSWVKQAPGKGLKWMGWINTYSGVPTFADDFKGRFAFSLETSASTAYLQINNLKNEDTATFFCARNYYGNHYFDYWGQGTTLTVSS VL: DVQITQSPSYLAASPGETISINCRASNNINKYLAWYQEKPGKTNKLLIYSGSTLQSGIPSRFSGSGSGTDFTLTISSLEPEDFAMYHCQQHNYYPLTFGAGTKLELK |  | 29.1% | 0.51 nM | 0.53 nM | 0.55 nM | 39.4% | 0% | 0% | 
8 | 43B6 (antibody, V domains shown, Control anti-PSGL-1 mAb, recombinant; only variable domains given; also called 43B3) VH: EVQLQQSGPDLVKPGALVKISCKASGYSFTAYYIHWVKQSHGKSLEWIGRVNPNTGGTSYNPKFKGKAILNVDKSSSTAYMELRSLTSEDSAVYYCARSGSPYYRYDDWGQGTTLTVSS VL: ENVLTQSPAIMSASPGEKVTMTCRASSTVNSTYLHWFQQKSGASPKLWIYGSSNLASGVPARFSGSGSGTSYSLTISSVEAEDAATYYCQQYSGYPLTFGAGTTLELK |  |  |  |  |  |  |  |  | binding result (E58A): binds; binding result (Q42A): binds; binding result (P59A): binds; binding result (Y48A): binds; binding result (P60A): binds; binding result (T57A): binds; binding result (E47A): binds
9 | 18K07 (antibody, V domains shown, From mouse immunisation; only variable domains given) VH: QIQLVQSGPELKKPGETVKISCEASGYTFTTYGMNWVKQAPGKGLKWMGWINTYSGVPTYADDFQGRFAFSVETSATTAYLQINNLKNEDAATYFCARSDDTYYGFAYWGQGTLVTVSA VL: not shown |  | 11.7% | 0.46 nM | 0.51 nM | 0.58 nM | 0% | 0% | 35.2% | 
10 | 19I01 (antibody, V domains shown, From mouse immunisation; only variable domains given; also called 19101) VH: EVQLVESGGGLVKPGGSRKLSCAASGFTFSDYGMHWVRQAPEKGLEWVAYISSGSSTIYYADTVKGRFTISRDNAKNTLFLQMTSLRSEDTAMYYCARGVDGYWGQGTTLTVSS VL: DVVMTQTPLSLPVSLGDQASISCRSSQSLVHSNGNTYLHWYLQKPGQSPKFLIYKVSNRFSGVPDRFSGSGSGTDFTLKISRVEAEDLGVYFCSQTTHVPLTFGAGTKLELK | ≤ 10% |  |  |  |  |  |  |  | 
